# Reference: US20050074854A1 (TRIPEP, published 2005)
# Target: gp120 of HIV-1 IIIB (on virus) (HIV-1 IIIB)
# Assay: cell-based or functional assay
Binder,"neutralization of HIV-1 IIIB (reduction of syncytia/PFU, U87/CD4 cells); CD4 peptide alone, 0.1 ug/ml","neutralization of HIV-1 IIIB (reduction of syncytia/PFU, U87/CD4 cells); CD4 peptide alone, 1 ug/ml","neutralization of HIV-1 IIIB (reduction of syncytia/PFU, U87/CD4 cells); CD4 peptide alone, 10 ug/ml"
QFHWKNSNQIKILGN [CD4 peptide Seq. Id. No. 4 without the coupled sugar],< 0.3 fraction neutralized (0.3 = 30%),< 0.3 fraction neutralized (0.3 = 30%),< 0.3 fraction neutralized (0.3 = 30%)
KILGNQGSFLTKGPS [CD4 peptide Seq. Id. No. 6 without the coupled sugar],< 0.3 fraction neutralized (0.3 = 30%),< 0.3 fraction neutralized (0.3 = 30%),< 0.3 fraction neutralized (0.3 = 30%)
QGSFLTKGPSKLNDR [CD4 peptide Seq. Id. No. 7 without the coupled sugar],< 0.3 fraction neutralized (0.3 = 30%),< 0.3 fraction neutralized (0.3 = 30%),< 0.3 fraction neutralized (0.3 = 30%)
NSNQIKILGNQGSFL [CD4 peptide Seq. Id. No. 5 without the coupled sugar],< 0.3 fraction neutralized (0.3 = 30%),< 0.3 fraction neutralized (0.3 = 30%),< 0.3 fraction neutralized (0.3 = 30%)
